Test results: the supplement of paper PMC11246515
± gives the standard deviation of the averaged measurements.

Assay: total protein half-life in vivo (active degradation + dilution); higher = more stable protein
[1] = E. coli NCM3722 delta-clpP, growth: N-lim chemostat, doubling time 6 h
[2] = E. coli NCM3722 delta-hslV, growth: N-lim chemostat, doubling time 6 h
[3] = E. coli NCM3722 delta-lon, growth: N-lim chemostat, doubling time 6 h
[4] = E. coli NCM3722 delta-smpB, growth: N-lim chemostat, doubling time 6 h
[5] = wild type E. coli NCM3722, growth: C-lim chemostat, doubling time 3 h
[6] = wild type E. coli NCM3722, growth: C-lim chemostat, doubling time 6 h
[7] = wild type E. coli NCM3722, growth: C-lim chemostat, doubling time 12 h
[8] = wild type E. coli NCM3722, growth: N-lim chemostat, doubling time 6 h
[9] = wild type E. coli NCM3722, growth: N-lim chemostat, doubling time 12 h
[10] = wild type E. coli NCM3722, growth: P-lim chemostat, doubling time 6 h
[11] = wild type E. coli NCM3722, growth: P-lim chemostat, doubling time 12 h
[12] = E. coli NCM3722 delta-clpP delta-lon delta-hslV, growth: N-lim chemostat, doubling time 6 h

Sequence	total protein half-life in vivo [1]	total protein half-life in vivo [2]	total protein half-life in vivo [3]	total protein half-life in vivo [4]	total protein half-life in vivo [5]	total protein half-life in vivo [6]	total protein half-life in vivo [7]	total protein half-life in vivo [8]	total protein half-life in vivo [9]	total protein half-life in vivo [10]	total protein half-life in vivo [11]	total protein half-life in vivo [12]
MDRIIEKLDHGWWVVSHEQKLWLPKGELPYGEAANFDLVGQRALQIGEWQGEPVWLVQQQRRHDMGSVRQVIDLDVGLFQLAGRGVQLAEFYRSHKYCGYCGHEMYPSKTEWAMLCSHCRERYYPQIAPCIIVAIRRDDSILLAQHTRHRNGVHTVLAGFVEVGETLEQAVAREVMEESGIKVKNLRYVTSQPWPFPQSLMTAFMAEYDSGDIVIDPKELLEANWYRYDDLPLLPPPGTVARRLIEDTVAMCRAEYE	5.5 ± 1.5 h	5.52 ± 2 h	4.5929 ± 0.0003 h	4.57 ± 0.72 h	3.06 ± 1.1 h	5.09 ± 0.28 h	11.1 ± 0.68 h	4.5 ± 0.24 h	6.936 ± 0.055 h	5.97 ± 0.23 h	11.17 ± 0.051 h	
MKKNSYLLSCLAIAVSSACHAEVLTYPDPLGSSQSDFGGTGLLQMPNARIAPEGEFSVNYRDNDQYRFYSTSVALFPWLEGTIRYTDVRTRKYSQWEDFSGDQSYKDKSFDFKLRLWEEGYWLPQVAFGKRDIAGTGLFDGEYLVASKQAGPFDFTLGMAWGYAGNAGNITNPFCRVSDKYCHRAESHDAGDISFSDIFRGPASIFGGIEYQTPWNPLRLKLEYDGNNYQNDFAGKLPQASHFNVGAVYRAASWADLNLSYERGNTLMFGFTLRTNFNDLRPALRDTPKPAYQPAPESEGLQYTTVANQLTALKYNAGFDAPEIQLRDKTLYMSGQQYKYRDSREAVDRANRILVNNLPQGVEKISVTQKREHMAMVTTETDVASLRKQLAGTAPGQSEPLQQQRVEAEDLSAFGRGYRIREDRFSYSFNPTLSQSLGGPEDFYMFQLGLMSSARYWFTDHLLLDGGIFTNIYNNYDKFKSSLLPADSTLPRVRTHIRDYVRNDVYLNNLQANYFADLGNGFYGQVYGGYLETMYAGVGSELLYRPLDACWALGVDVNYVKQRDWDNMMRFTDYSTPTGFVTAYWNPPTLNGVLMKLSVGQYLAKDKGATIDVAKRFDSGVAVGVWAAISNVSKDDYGEGGFSKGFYISIPFDLMTIGPNRNRAVVSWTPLTRDGGQMLSRKYQLYPMTAEREVPVGQ		6.08 ± 0.65 h			3.09 h		10.3 h	6.71 h			> 16 h	4.97 ± 0.12 h
MAYRDQPLGELALSIPRASALFRKYDMDYCCGGKQTLARAAARKELDVEVIEAELAKLAEQPIEKDWRSAPLAEIIDHIIVRYHDRHREQLPELILQATKVERVHADKPSVPKGLTKYLTMLHEELSSHMMKEEQILFPMIKQGMGSQAMGPISVMESEHDEAGELLEVIKHTTNNVTPPPEACTTWKAMYNGINELIDDLMDHISLENNVLFPRALAGE			> 8 h	2.54 h	2.72 h							
MIRQVIQRISNPEASIESLQERRFWLQCERAYTWQPIYQTCGRLMAVELLTVVTHPLNPSQRLPPDRYFTEITVSHRMEVVKEQIDLLAQKADFFIEHGLLASVNIDGPTLIALRQQPKILRQIERLPWLRFELVEHIRLPKDSTFASMCEFGPLWLDDFGTGMANFSALSEVRYDYIKIARELFVMLRQSPEGRTLFSQLLHLMNRYCRGVIVEGVETPEEWRDVQNSPAFAAQGWFLSRPAPIETLNTAVLAL					0.512 ± 0.23 h							
MSQAKSNKMGVVQLTILTMVNMMGSGIIMLPTKLAEVGTISIISWLVTAVGSMALAWAFAKCGMFSRKSGGMGGYAEYAFGKSGNFMANYTYGVSLLIANVAIAISAVGYGTELLGASLSPVQIGLATIGVLWICTVANFGGARITGQISSITVWGVIIPVVGLCIIGWFWFSPTLYVDSWNPHHAPFFSAVGSSIAMTLWAFLGLESACANTDVVENPERNVPIAVLGGTLGAAVIYIVSTNVIAGIVPNMELANSTAPFGLAFAQMFTPEVGKVIMALMVMSCCGSLLGWQFTIAQVFKSSSDEGYFPKIFSRVTKVDAPVQGMLTIVIIQSGLALMTISPSLNSQFNVLVNLAVVTNIIPYILSMAALVIIQKVANVPPSKAKVANFVAFVGAMYSFYALYSSGEEAMLYGSIVTFLGWTLYGLVSPRFELKNKHG [P0AAF1]				5.34 ± 1 h		> 8 h	> 16 h	4.53 h	> 16 h			6.73 ± 1.1 h
MSQKTLFTKSALAVAVALISTQAWSAGFQLNEFSSSGLGRAYSGEGAIADDAGNVSRNPALITMFDRPTFSAGAVYIDPDVNISGTSPSGRSLKADNIAPTAWVPNMHFVAPINDQFGWGASITSNYGLATEFNDTYAGGSVGGTTDLETMNLNLSGAYRLNNAWSFGLGFNAVYARAKIERFAGDLGQLVAGQIMQSPAGQTQQGQALAATANGIDSNTKIAHLNGNQWGFGWNAGILYELDKNNRYALTYRSEVKIDFKGNYSSDLNRAFNNYGLPIPTATGGATQSGYLTLNLPEMWEVSGYNRVDPQWAIHYSLAYTSWSQFQQLKATSTSGDTLFQKHEGFKDAYRIALGTTYYYDDNWTFRTGIAFDDSPVPAQNRSISIPDQDRFWLSAGTTYAFNKDASVDVGVSYMHGQSVKINEGPYQFESEGKAWLFGTNFNYAF				5.52 ± 0.67 h	3.2 ± 0.064 h	6.165 ± 0.014 h	10.9 ± 0.23 h	6.3 ± 0.37 h	11.1 ± 0.23 h	6.09 ± 0.34 h	12.2 ± 1.2 h	6.74 ± 1.8 h
MAQVAIITASDSGIGKECALLLAQQGFDIGITWHSDEEGAKDTAREVVSHGVRAEIVQLDLGNLPEGALALEKLIQRLGRIDVLVNNAGAMTKAPFLDMAFDEWRKIFTVDVDGAFLCSQIAARQMVKQGQGGRIINITSVHEHTPLPDASAYTAAKHALGGLTKAMALELVRHKILVNAVAPGAIATPMNGMDDSDVKPDAEPSIPLRRFGATHEIASLVVWLCSEGANYTTGQSLIVDGGFMLANPQFNPE	4.64 ± 0.2 h	5.14 ± 0.54 h	4.36 ± 0.089 h	4.64 ± 0.24 h	2.863 ± 0.007 h	5.19 ± 0.38 h	11 ± 0.19 h	4.81 ± 0.42 h	7.86 ± 0.13 h	5.6 ± 0.22 h	10.9 ± 0.34 h	5.0837 ± 0.0019 h
